The values below come from article doi:10.1101/2025.05.23.649291 (bioRxiv, 2025).

Read-outs that look alike come from different tables or passages of the source.

Experiment [1] has as its target mFc-mouse TfR1 ectodomain (mouse IgG2a Fc fusion) (Mus musculus, UniProt Q62351). Nature of the experiment: SPR.
In experiment [2] the target is T1, human TfR1 fused to EGFP, on CHO-hTfR1-EGFP cells (human, UniProt P02786). Nature of the experiment: flow cytometry on cells.
The target in experiment [3] is T2, rhesus monkey TfR1 fused to EGFP, on CHO-rhTfR1-EGFP cells (Macaca mulatta, UniProt H9Z2T8). Put plainly: immunostaining of cells or tissue.
In experiment [4] the target is mFc-human TfR1 ectodomain (mouse IgG2a Fc fusion) (Homo sapiens, UniProt P02786). Nature of the experiment: SPR.
Experiment [5] concerns the target mouse NTSR1 fused to GFP, on Expi293 cells (mouse, UniProt O88319). Nature of the experiment: flow cytometry on cells.
For experiment [6], the target named is T2, rhesus monkey TfR1 fused to EGFP, on …. Nature of the experiment: flow cytometry on cells.
Experiment [7] has as its target T1, human TfR1 fused to EGFP, on …. Nature of the experiment: immunostaining of cells or tissue.
In experiment [8] the target is T3, mouse TfR1 fused to EGFP, on CHO-mTfR1-EGFP cells (Mus musculus, UniProt Q62351). Nature of the experiment: immunostaining of cells or tissue.
T3 sequence (Q62351 whole entry, the tested form may be a part): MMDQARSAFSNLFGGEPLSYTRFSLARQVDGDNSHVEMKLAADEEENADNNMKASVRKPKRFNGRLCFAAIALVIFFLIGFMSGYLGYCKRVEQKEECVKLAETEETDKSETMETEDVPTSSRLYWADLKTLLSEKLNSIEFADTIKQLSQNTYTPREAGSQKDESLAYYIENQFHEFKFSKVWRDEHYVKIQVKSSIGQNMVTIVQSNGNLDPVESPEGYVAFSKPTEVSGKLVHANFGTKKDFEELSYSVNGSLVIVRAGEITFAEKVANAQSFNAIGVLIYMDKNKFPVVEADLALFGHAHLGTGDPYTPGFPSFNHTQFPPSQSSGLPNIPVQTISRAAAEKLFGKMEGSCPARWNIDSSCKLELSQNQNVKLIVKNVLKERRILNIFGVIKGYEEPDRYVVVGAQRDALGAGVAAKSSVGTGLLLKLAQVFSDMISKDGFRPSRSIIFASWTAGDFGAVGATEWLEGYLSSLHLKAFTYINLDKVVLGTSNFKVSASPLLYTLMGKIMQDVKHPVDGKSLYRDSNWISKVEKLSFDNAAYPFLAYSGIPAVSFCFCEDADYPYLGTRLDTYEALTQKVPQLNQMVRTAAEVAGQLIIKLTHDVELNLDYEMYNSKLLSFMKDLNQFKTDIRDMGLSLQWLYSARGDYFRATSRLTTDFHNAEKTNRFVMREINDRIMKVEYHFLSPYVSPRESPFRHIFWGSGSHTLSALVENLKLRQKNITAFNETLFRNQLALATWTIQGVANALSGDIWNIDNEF
Experiment [9] concerns the target T3, mouse TfR1 fused to EGFP, on …. Nature of the experiment: immunostaining of cells or tissue. This is another data set of the same source.
Experiment [10] has as its target T2, rhesus monkey TfR1 fused to EGFP, on …. Put plainly: immunostaining of cells or tissue. The source holds these as a separate data set.
In experiment [11] the target is mFc-rhesus monkey TfR1 ectodomain (mouse IgG2a Fc fusion) (Macaca mulatta, UniProt H9Z2T8). Nature of the experiment: SPR.

Sequence of mFc-mouse TfR1 ectodomain (mouse IgG2a Fc fusion) (Q62351 89-763): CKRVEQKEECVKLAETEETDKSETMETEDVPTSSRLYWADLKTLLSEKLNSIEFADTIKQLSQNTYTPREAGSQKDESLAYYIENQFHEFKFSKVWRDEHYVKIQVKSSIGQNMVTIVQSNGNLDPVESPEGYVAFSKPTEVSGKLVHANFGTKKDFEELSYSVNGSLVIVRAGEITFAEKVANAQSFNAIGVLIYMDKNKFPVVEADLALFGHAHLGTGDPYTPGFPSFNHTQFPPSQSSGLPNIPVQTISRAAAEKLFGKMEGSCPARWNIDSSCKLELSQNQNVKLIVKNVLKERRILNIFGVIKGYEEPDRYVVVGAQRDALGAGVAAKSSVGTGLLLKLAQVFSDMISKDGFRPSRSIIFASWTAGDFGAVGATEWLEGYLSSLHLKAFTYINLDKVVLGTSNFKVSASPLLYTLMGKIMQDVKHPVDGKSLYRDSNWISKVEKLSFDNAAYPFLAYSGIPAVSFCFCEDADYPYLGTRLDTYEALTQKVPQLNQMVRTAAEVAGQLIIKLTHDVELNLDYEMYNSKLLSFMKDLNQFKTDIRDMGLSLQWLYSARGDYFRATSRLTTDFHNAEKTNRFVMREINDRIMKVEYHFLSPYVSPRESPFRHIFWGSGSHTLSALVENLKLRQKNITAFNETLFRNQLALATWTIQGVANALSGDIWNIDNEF
Sequence of mouse NTSR1 fused to GFP, on Expi293 cells (O88319 whole entry, the tested form may be a part): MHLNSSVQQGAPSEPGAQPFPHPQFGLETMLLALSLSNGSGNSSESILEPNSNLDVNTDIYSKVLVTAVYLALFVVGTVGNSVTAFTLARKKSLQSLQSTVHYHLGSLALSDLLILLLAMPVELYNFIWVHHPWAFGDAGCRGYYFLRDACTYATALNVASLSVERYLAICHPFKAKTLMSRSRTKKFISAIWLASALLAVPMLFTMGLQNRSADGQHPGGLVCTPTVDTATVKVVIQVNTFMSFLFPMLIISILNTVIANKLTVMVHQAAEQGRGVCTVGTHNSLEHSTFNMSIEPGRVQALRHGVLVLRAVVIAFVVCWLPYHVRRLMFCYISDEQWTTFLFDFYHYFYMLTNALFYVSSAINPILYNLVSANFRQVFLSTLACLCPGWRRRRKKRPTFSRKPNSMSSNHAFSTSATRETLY

B1: VHH C5 (VHH)
chain: EVQLVESGGGVVQPGGSLKLSCVASGTDFSINFIRWYRQAPGKQREFVAGFTATGNTNYADSMKGRFTISRDNTKNAVYLQIDSLKPEDTAVYYCYMLDKWGQGTQVTVSS
For B1, the results for the Kd in [1] and in [2] were ~110 nM and 3.1 nM, respectively. The binding result in [3] is recorded as “binds”.

B2: C5V30 (VHH)
VHH: EVQLVESGGGVVQPGGSLKLSCVASGTDKSINFIRWYRQAPGKQREFVAGFTATGNTNYADSMKGRFTISRDNTKNAVYLQIDSLKPEDTAVYYCYMLDKWGQGTQVTVSS
Consider B2, for which the binding result in experiment [4] is reported as “binds”.

B3: C5neg-NT(8-13) (VHH)
VHH: EVQLVESGGGVVQPGGSLKLSCVASGTDFSINFIRWYRQAPGKQREFVAGFTATGNTNYADSMKGRFTISRDNTKNAVYLQIDSLKPEDTAVYYCAMADKWGQGTQVTVSS
As to B3, the binding result in [5] is listed as “binds”.

B4: C5-NT(8-13) (VHH)
VHH: EVQLVESGGGVVQPGGSLKLSCVASGTDFSINFIRWYRQAPGKQREFVAGFTATGNTNYADSMKGRFTISRDNTKNAVYLQIDSLKPEDTAVYYCYMLDKWGQGTQVTVSS
In [4], B4 registered an equilibrium dissociation constant (Kd) of 0.1 nM, an off-rate constant (koff) of 0.00016 s⁻¹ and a kon of 1.36e+06 M⁻¹ s⁻¹.

B5: VHH H3 (VHH)
VHH: EVQLVESGGGEVQPGGSLKLSCVASGTDFSINFVRWYRQRPGKQREWVAGFTANGDTNYPDSMKGRFTISRDNAKNTVYLQINSLKSEDTAVYYCYMLDNWGQGTQVTVSS
Turning to B5, the binding result in [6], in [7] and in experiment [8] was “binds” throughout.

B6: VHH B6 (VHH)
VHH: EVQLVESGGGLVQPGGSLRLSCTASGGPIEQYPMGWFRRAPGKERELVASISRSGDGTYYAISSVKGRFTISRDNAENTVFLQMNSLKPDDTAVYYCGAGINPTKIWGQGTQVTVSS
B6 yielded a Kd in [2] of 2.7 nM. Besides, the binding result in experiment [9] and in experiment [10] was “no binding (tested: 50 µg/ml)” each time.

B7: VHH B8 (VHH)
chain: EVQLVESGGGVVQPGGSLRLSCAASGEIFSINFMRWYRQAPGKQREWVAGFTRDGSTNYPDSAKGRFTISRDNAKNTVYLQIDSLKPEDTAVYYCYMLDTWGQGTQVTVSS
Take B7: the results for the Kd in experiment [1] and in experiment [2] were ~30 nM and 2.4 nM, respectively. Moreover, the binding result in experiment [6] is “binds”.

B8: B8V37 (VHH)
VHH: EVQLVESGGGVVQPGGSLRLSCAASGEIFSINFMRWYRQAPGKQREWVAGFTRDGSTNYPDSAKGRFTISEDNAKNTVYLQIDSLKPEDTAVYYCYMLRTWGQGTQVTVSS
Turning to B8, the binding result in experiment [4] is given as “binds”.

B9: B8-NT(8-13) (VHH)
VHH: EVQLVESGGGVVQPGGSLRLSCAASGEIFSINFMRWYRQAPGKQREWVAGFTRDGSTNYPDSAKGRFTISRDNAKNTVYLQIDSLKPEDTAVYYCYMLDTWGQGTQVTVSS
Take B9: in experiment [5], the binding result is listed as “binds”.

B10: B8V40 (VHH)
chain: EVQLVESGGGVVQPGGSLRLSCAASGEIKSINFMRWYRQAPGKQREWVSGFTRDGSTNYPDSAKGRFTISRDNAKNTVYLQIDSLKPEDTAVYYCYMLDTWGQGTQVTVSS
For B10, the binding result in experiment [4] and in [11] was “binds” in each case.

B11: B8V31 (VHH)
chain: EVQLVESGGGVVQPGGSLRLSCAASGEIKSINFMRWYRQAPGKQREWVAGFTRDGSTNYPDSAKGRFTISRDNAKNTVYLQIDSLKPEDTAVYYCYMLDTWGQGTQVTVSS
Turning to B11, the binding result in experiment [4] and in experiment [11] was “binds” in each case.

B12: B8V34-NT(8-13) (VHH)
VHH: EVQLVESGGGVVQPGGSLRLSCAASGEIRSINFMRWYRQAPGKQREWVAGFTRDGSTNYPDIAKGRFTISRDNAKNTVYLQIDSLKPEDTAVYYCYMLDTWGQGTQVTVSS
Molecule B12 had a Kd in experiment [4] of 16.9 nM.
